Source: patent US20200262877A1, “ION CHANNEL-BINDING PEPTIDES AND METHODS OF USE THEREOF” (priority 2017, published 2020)
Where “and” joins values, the source holds several entries; their conditions need not be identical. Equal entries are not always repeated. Structures can show the parent of a compound that is named as a salt.

How the values were obtained:
GABA = assay: Ion channel panel (IonWorks Barracuda): GABA; format: cell-based
Protocol: (§1) This example describes a method for assaying ion channel activity in cells.
(§2) Peptides were screened in duplicate at final concentrations of 20 μM and 200 nM, as determined by amino acid analysis, and diluted into HEPES buffered physiological saline (HBPS). HEK293 or CHO cells from the American Type Culture Collection (ATCC) were transfected with the appropriate ion channel before use. HEK293 cells were grown in Dulbecco's Modified Eagle Medium/Nutrient Mixture F-12, and CHO cells were cultured in Ham's F-12 media. All cultures were supplemented with 10% fetal bovine serum, 100 U/ml penicillin G, 100 μg/ml streptomycin sulfate, and the appropriate selection antibiotics. Prior to use, cells were washed twice with Hank's Balanced Salt Solution, and treated with Accutase cell detachment solution (Sigma-Aldrich). Cells were then washed. Peptides and controls were incubated with cells for at least five minutes.
(§3) Percent inhibition was defined as: (1-(Ipeptide/Icontrol))×100%).
(§4) Percent values were calculated using the following formula: % activation=(IPeptide/Icontrol)×100%, where IPeptide is the current produced by co-application a peptide with agonist, and Icontrol refers to the current produced by stimulation in control. Control used for each ion channel is the reference compound matched to a particular channel, as illustrated in TABLE 10 below.

TRPV1 = target: T1, TRPV1 (Homo sapiens, UniProt Q8NER1); assay: Ion channel panel (IonWorks Barracuda): TRPV1; format: cell-based
T1 construct: host or cells: HEK293 or CHO
Protocol: as §1, §2, §3, §4

α4β2 = target: T2, α4β2 (Homo sapiens, UniProt P17787+P43681); assay: Ion channel panel (IonWorks Barracuda): α4β2; format: cell-based
T2 construct: host or cells: HEK293 or CHO
T2 sequence (P43681 29-627): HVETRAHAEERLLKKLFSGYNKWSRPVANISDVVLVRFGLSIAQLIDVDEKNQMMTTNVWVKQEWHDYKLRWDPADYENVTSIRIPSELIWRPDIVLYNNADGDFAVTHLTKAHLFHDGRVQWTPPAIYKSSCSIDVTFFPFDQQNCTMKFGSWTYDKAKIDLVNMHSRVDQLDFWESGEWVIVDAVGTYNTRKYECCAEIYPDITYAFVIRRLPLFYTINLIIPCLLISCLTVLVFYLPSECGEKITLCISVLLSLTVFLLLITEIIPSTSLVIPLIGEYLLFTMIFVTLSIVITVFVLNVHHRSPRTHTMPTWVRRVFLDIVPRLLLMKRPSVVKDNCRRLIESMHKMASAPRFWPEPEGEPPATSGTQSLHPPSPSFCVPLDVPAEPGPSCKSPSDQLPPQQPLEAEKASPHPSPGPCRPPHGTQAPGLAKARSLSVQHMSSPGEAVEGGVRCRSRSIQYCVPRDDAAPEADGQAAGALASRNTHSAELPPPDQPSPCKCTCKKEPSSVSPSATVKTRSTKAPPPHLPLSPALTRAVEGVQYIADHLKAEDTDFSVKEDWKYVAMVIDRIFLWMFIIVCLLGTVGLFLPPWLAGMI
T2 sequence (P17787 26-502): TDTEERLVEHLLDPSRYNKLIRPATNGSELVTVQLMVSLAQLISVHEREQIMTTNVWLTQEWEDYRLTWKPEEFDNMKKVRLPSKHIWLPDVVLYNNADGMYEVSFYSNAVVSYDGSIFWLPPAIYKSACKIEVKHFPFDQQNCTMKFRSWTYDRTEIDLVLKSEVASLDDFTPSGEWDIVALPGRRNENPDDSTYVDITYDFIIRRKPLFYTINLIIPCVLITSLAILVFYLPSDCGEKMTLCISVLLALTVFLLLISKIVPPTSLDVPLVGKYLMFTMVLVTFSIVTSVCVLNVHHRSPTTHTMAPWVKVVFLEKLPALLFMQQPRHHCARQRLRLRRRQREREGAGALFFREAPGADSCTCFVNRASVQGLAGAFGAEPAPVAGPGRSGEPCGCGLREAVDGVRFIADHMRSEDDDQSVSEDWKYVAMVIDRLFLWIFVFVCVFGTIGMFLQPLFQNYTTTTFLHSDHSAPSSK
Protocol: as §1, §2, §3, §4

hERG = hERG (Homo sapiens, UniProt Q12809); assay: in vitro; details: 100% = no change, <100% = inhibition
Protocol: as §1, §2, §3, §4

Nav1.5 = Nav1.5 (Homo sapiens, UniProt Q14524); assay: in vitro; details: 100% = no change; for Activity of Nav1.5 with peptide, expressed as a percentage of the reference compound: peptide at 0.2 μM; for Activity of Nav1.5 with peptide (percentage of the reference compound): peptide at 20 μM
Protocol: as §1, §2, §3, §4

TRPA1 = target: T3, TRPA1 (Homo sapiens, UniProt O75762); assay: Ion channel panel (IonWorks Barracuda): TRPA1; format: cell-based; details: 100% = no change, <100% = inhibition
T3 construct: host or cells: HEK293 or CHO
Protocol: as §1, §2, §3, §4

Nav1.7 = target: T4, Nav1.7 (Homo sapiens, UniProt Q15858); assay: cell-based; format: cell-based; details: for Activity of Nav1.7 with peptide, expressed as a percentage of the reference compound: peptide at 0.2 μM; for Activity of Nav1.7 with peptide, expressed as a percentage of the reference compound / Activity of Nav1.7 with peptide (percentage of the reference compound): 100% = no change; for Activity of Nav1.7 with peptide (percentage of the reference compound): peptide at 20 μM
T4 construct: host or cells: HEK293 or CHO
Protocol: as §1
as §2, with “Peptides were screened in duplicate at final concentrations of 20 μM and 200 nM, as determined by amino acid analysis, and diluted into HEPES buffered physiological saline (HBPS).” left out
as §3, §4

α3β4 = target: T5, α3β4 (Homo sapiens, UniProt P30926+P32297); assay: Ion channel panel (IonWorks Barracuda): α3β4; format: cell-based; details: 100% = no change, <100% = inhibition
T5 construct: host or cells: HEK293 or CHO
Protocol: as §1, §2, §3, §4

NR2A = target: T6, NR2A (Homo sapiens, UniProt Q12879); assay: Ion channel panel (IonWorks Barracuda): NR2A; format: cell-based; details: 100% = no change, <100% = inhibition
T6 construct: host or cells: HEK293 or CHO
Protocol: as §1, §2, §3, §4

5HT3a = target: T7, 5HT3a (Homo sapiens, UniProt P46098); assay: Ion channel panel (IonWorks Barracuda): 5HT3a; format: cell-based
T7 construct: host or cells: HEK293 or CHO
T7 sequence (P46098 whole entry, looked up): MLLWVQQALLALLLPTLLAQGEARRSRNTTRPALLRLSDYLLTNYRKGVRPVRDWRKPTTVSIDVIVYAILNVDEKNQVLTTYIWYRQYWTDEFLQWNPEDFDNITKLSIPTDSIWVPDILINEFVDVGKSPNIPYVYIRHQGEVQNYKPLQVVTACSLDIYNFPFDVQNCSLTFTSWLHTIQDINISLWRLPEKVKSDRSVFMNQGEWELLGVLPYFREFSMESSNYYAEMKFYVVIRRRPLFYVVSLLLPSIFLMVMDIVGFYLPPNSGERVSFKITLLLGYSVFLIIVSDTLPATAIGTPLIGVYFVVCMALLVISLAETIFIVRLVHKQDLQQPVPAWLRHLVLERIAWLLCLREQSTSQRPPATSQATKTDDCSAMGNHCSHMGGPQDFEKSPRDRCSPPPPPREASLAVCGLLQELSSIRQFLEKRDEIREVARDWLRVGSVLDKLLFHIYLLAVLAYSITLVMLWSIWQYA
Protocol: as §1, §2, §3, §4

NR2B = target: T8, NR2B (Homo sapiens, UniProt Q13224); assay: Ion channel panel (IonWorks Barracuda): NR2B; format: cell-based; details: 100% = no change, <100% = inhibition
T8 construct: host or cells: HEK293 or CHO
Protocol: as §1, §2, §3, §4

Cav2.1 = target: T9, Cav2.1 (Homo sapiens, UniProt O00555); assay: cell-based
T9 construct: host or cells: HEK293 or CHO
Protocol: as §1, §2, §3, §4

Kv2.1 = target: T10, Kv2.1 (Homo sapiens, UniProt Q14721); assay: cell-based
T10 construct: host or cells: HEK293 or CHO
Protocol: as §1, §2, §3, §4

Cav2.2 = target: T11, Cav2.2 (Homo sapiens, UniProt Q00975); assay: cell-based
T11 construct: host or cells: HEK293 or CHO
T11 sequence (Q00975 whole entry): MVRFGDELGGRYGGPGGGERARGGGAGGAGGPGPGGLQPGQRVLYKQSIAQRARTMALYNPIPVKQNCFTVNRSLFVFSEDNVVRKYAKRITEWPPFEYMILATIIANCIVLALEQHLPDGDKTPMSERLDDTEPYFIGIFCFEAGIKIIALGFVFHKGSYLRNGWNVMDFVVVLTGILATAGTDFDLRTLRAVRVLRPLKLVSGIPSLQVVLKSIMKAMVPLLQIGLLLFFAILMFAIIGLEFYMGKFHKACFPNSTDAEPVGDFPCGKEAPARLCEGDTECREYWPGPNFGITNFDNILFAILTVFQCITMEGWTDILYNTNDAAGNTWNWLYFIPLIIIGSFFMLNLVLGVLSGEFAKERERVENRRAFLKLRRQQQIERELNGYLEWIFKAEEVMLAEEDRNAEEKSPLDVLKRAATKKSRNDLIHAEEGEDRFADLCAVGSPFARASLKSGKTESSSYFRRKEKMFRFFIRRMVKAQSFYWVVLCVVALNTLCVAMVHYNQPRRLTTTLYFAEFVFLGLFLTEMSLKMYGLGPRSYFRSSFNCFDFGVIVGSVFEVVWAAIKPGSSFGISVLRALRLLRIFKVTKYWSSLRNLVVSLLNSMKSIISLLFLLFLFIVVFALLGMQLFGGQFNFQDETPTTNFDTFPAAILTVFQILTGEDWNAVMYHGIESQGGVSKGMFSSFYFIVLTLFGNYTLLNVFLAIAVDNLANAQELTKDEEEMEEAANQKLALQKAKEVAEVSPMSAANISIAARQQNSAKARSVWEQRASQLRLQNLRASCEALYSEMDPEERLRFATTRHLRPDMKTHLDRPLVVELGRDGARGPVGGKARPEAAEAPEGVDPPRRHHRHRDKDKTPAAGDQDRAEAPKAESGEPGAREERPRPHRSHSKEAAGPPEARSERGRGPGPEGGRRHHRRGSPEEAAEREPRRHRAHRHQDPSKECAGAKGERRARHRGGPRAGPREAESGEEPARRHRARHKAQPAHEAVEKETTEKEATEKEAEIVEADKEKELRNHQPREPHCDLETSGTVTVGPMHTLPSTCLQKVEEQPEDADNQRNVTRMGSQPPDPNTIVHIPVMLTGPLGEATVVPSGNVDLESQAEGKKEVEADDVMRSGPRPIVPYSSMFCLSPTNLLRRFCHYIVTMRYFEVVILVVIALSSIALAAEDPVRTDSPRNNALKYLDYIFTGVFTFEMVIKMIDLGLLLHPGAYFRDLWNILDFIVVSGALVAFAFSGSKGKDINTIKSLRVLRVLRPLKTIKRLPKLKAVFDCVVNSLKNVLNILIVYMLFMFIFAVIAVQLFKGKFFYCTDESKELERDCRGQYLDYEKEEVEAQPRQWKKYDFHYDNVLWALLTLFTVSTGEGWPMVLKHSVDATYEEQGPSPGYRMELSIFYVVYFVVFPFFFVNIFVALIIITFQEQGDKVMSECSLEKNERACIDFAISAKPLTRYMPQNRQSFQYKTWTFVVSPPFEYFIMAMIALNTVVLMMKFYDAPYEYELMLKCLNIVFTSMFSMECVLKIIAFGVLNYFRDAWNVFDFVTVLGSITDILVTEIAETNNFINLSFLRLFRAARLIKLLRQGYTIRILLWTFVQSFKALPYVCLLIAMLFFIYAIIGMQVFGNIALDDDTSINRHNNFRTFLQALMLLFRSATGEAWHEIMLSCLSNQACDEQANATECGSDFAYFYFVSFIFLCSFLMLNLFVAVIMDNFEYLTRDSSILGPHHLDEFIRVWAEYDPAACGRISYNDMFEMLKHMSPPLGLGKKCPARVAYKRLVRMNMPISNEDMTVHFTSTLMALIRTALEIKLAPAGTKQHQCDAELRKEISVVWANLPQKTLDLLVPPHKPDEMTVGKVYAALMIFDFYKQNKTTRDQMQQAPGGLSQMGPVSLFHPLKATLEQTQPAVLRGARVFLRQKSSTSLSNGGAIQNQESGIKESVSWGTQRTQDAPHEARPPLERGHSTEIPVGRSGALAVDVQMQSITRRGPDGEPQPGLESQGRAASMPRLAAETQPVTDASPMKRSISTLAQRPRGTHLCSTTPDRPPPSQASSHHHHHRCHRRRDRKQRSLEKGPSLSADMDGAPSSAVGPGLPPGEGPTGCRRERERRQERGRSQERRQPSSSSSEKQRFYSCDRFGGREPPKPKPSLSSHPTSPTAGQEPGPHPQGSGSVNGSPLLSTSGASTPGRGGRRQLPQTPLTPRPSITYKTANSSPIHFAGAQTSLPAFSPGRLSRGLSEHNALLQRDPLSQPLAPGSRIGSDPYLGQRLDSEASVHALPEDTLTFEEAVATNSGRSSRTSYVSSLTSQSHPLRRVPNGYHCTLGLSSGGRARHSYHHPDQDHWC
T11 sequence (P54289 25-1103, further chain): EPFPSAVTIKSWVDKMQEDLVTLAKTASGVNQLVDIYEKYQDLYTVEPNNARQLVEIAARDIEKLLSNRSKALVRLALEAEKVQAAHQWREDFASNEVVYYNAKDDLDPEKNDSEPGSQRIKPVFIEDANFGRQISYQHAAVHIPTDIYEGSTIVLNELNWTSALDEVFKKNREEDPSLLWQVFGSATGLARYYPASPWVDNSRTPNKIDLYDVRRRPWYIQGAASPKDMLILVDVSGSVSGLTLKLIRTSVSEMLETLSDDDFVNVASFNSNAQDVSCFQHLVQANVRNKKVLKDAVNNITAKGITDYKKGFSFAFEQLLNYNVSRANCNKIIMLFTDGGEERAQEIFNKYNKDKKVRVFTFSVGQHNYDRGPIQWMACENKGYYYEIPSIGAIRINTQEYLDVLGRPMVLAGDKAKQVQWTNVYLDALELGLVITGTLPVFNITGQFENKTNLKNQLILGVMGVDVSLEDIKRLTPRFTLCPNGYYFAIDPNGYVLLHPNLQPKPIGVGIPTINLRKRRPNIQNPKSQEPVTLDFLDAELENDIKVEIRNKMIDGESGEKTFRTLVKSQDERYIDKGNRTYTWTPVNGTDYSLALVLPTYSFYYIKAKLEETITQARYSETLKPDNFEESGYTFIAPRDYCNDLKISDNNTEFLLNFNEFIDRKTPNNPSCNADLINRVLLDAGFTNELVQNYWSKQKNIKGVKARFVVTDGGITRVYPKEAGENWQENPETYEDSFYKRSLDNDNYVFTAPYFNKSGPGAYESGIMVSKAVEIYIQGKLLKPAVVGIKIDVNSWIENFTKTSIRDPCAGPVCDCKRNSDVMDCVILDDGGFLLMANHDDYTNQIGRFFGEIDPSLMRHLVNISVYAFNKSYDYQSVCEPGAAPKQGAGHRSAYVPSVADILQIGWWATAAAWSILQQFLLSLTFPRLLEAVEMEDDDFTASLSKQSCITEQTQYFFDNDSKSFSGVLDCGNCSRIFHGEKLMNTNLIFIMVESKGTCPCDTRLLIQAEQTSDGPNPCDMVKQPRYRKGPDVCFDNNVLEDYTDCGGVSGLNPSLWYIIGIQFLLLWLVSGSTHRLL
T11 sequence (P54284 whole entry, further chain): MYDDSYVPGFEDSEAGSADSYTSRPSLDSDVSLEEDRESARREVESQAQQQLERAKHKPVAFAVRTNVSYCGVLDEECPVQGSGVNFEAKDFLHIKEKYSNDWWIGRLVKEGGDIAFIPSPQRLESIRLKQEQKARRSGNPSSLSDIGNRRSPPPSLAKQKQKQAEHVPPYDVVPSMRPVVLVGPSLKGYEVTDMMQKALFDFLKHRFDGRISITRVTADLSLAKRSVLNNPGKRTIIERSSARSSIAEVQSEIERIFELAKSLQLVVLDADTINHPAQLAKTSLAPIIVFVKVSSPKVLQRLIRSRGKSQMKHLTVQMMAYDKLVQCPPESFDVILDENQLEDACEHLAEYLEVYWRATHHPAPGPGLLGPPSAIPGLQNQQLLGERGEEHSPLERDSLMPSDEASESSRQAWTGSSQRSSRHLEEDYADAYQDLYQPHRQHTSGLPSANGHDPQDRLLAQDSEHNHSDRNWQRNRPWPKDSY
Protocol: as §1, §2, §3, §4

Kv1.2 = target: T12, Kv1.2 (Homo sapiens, UniProt P16389); assay: cell-based; format: cell-based; details: 100% = no change, <100% = inhibition
T12 construct: host or cells: HEK293 or CHO
Protocol: as §1, §2, §3, §4

Kv1.3 = target: T13, Kv1.3 (Homo sapiens, UniProt P22001); assay: cell-based; format: cell-based; details: for Kv1.3 inhibition: 0.2 or 20 μM, FIG. 2
T13 construct: host or cells: HEK293 or CHO
Protocol: as §1, §2, §3, §4

Kv1.1 = target: T14, Kv1.1 (Homo sapiens, UniProt Q09470); assay: cell-based; format: cell-based; details: 100% = no change, <100% = inhibition
T14 construct: host or cells: HEK293 or CHO
Protocol: as §1, §2, §3, §4

Kir2.1 = target: T15, Kir2.1 (Homo sapiens, UniProt P63252); assay: Ion channel panel (IonWorks Barracuda): Kir2.1; format: cell-based
T15 construct: host or cells: HEK293 or CHO
Protocol: as §1, §2, §3, §4

[1] = peptide at 0.2 μM, 100% = no change, <100% = inhibition
[2] = peptide at 20 μM, 100% = no change, <100% = inhibition
[3] = first of two Nav1.5 columns (probably TP1)
[4] = second of two Nav1.5 columns (probably TP2)
[5] = first of two Nav1.7 columns (probably TP1)
[6] = second of two Nav1.7 columns (probably TP2)

2 (GSEVIRCSGSKQCYGPCKQQTGCTNSKCMNKVCKCYGCG) [compound 2]
Activity of GABA with peptide, expressed as a percentage of the reference compound (GABA; [1]): 104%
Activity of GABA with peptide (percentage of the reference compound) (GABA; [2]): 97%
Activity of TRPV1 with peptide, expressed as a percentage of the reference compound (TRPV1; [1]): 95%
Activity of TRPV1 with peptide (percentage of the reference compound) (TRPV1; [2]): 81%
Activity of a4b2 with peptide, expressed as a percentage of the reference compound (α4β2; [1]): 95%
Activity of a4b2 with peptide (percentage of the reference compound) (α4β2; [2]): 87%
Activity of hERG with peptide, expressed as a percentage of the reference compound (hERG; peptide at 0.2 μM): 97%
Activity of hERG with peptide (percentage of the reference compound) (hERG; peptide at 20 μM): 76%
Activity of Nav1.5 with peptide, expressed as a percentage of the reference compound (Nav1.5; [3]): 95%
Activity of Nav1.5 with peptide, expressed as a percentage of the reference compound (Nav1.5; [4]): 93%
Activity of Nav1.5 with peptide (percentage of the reference compound) (Nav1.5; [3]): 102%
Activity of Nav1.5 with peptide (percentage of the reference compound) (Nav1.5; [4]): 101%
Activity of TRPA1 with peptide, expressed as a percentage of the reference compound (TRPA1; peptide at 0.2 μM): 106%
Activity of TRPA1 with peptide (percentage of the reference compound) (TRPA1; peptide at 20 μM): 92%
Activity of Nav1.7 with peptide, expressed as a percentage of the reference compound (Nav1.7; [5]): 89%
Activity of Nav1.7 with peptide, expressed as a percentage of the reference compound (Nav1.7; [6]): 74%
Activity of Nav1.7 with peptide (percentage of the reference compound) (Nav1.7; [5]): 61%
Activity of Nav1.7 with peptide (percentage of the reference compound) (Nav1.7; [6]): 91%
Activity of a3b4 with peptide, expressed as a percentage of the reference compound (α3β4; peptide at 0.2 μM): 85%
Activity of a3b4 with peptide (percentage of the reference compound) (α3β4; peptide at 20 μM): 88%
Activity of NR2A with peptide, expressed as a percentage of the reference compound (NR2A; peptide at 0.2 μM): 102%
Activity of NR2A with peptide (percentage of the reference compound) (NR2A; peptide at 20 μM): 95%
Activity of 5HT3a with peptide (percentage of the reference compound) (5HT3a): 88%
Activity of 5HT3a with peptide, expressed as a percentage of the reference compound (5HT3a): 92%
Activity of NR2B with peptide, expressed as a percentage of the reference compound (NR2B; peptide at 0.2 μM): 118%
Activity of NR2B with peptide (percentage of the reference compound) (NR2B; peptide at 20 μM): 72%
Activity of Cav2.1 with peptide, expressed as a percentage of the reference compound (Cav2.1; [1]): 103%
Activity of Cav2.1 with peptide (percentage of the reference compound) (Cav2.1; [2]): 108%
Activity of Kv2.1 with peptide, expressed as a percentage of the reference compound (Kv2.1; [1]): 80%
Activity of Kv2.1 with peptide (percentage of the reference compound) (Kv2.1; [2]): 87%
Activity of Cav2.2 with peptide, expressed as a percentage of the reference compound (Cav2.2; [1]): 104%
Activity of Cav2.2 with peptide (percentage of the reference compound) (Cav2.2; [2]): 104%
Activity of Kv1.2 with peptide, expressed as a percentage of the reference compound (Kv1.2; peptide at 0.2 μM): 34%
Activity of Kv1.2 with peptide (percentage of the reference compound) (Kv1.2; peptide at 20 μM): 39%
Activity of Kv1.3 with peptide, expressed as a percentage of the reference compound (Kv1.3; [1]): 8%
Activity of Kv1.3 with peptide (percentage of the reference compound) (Kv1.3; [2]): 1%
Activity of Kv1.1 with peptide, expressed as a percentage of the reference compound (Kv1.1; peptide at 0.2 μM): 114%
Activity of Kv1.1 with peptide (percentage of the reference compound) (Kv1.1; peptide at 20 μM): 68%
Activity of Kir2.1 with peptide, expressed as a percentage of the reference compound (Kir2.1; [1]): 101%
Activity of Kir2.1 with peptide (percentage of the reference compound) (Kir2.1; [2]): 89%

[Ba+2].[Cl-].[Cl-] [BaCl2, reference compound]
IC50 (Kir2.1; Kir2.1, read-out: IC50 of receptor/channel inhibition with reference compound): 5.25 µM

Oc1cc2c(cc1O)CN(C(=S)NCCc1ccc(Cl)cc1)CCC2 [Capsazepine, reference compound]
IC50 (TRPV1): 0.09 µM

CCN(CC)CC(=O)Nc1c(C)cccc1C [Lidocaine, reference compound]
IC50 (Nav1.7; IC50 of receptor/channel inhibition with reference compound): 465 µM and 285 µM

CNC1(C)C2CCC(C2)C1(C)C (stereo not drawn) [Mecamylamine, reference compound]
IC50 (α4β2; α4β2, read-out: IC50 of receptor/channel inhibition with reference compound): 1.14 µM

COCC(=O)O[C@]1(CCN(C)CCCc2nc3ccccc3[nH]2)CCc2cc(F)ccc2[C@@H]1C(C)C [Mibefradil dihydrochloride, reference compound]
IC50 (Cav2.1; Cav2.1, read-out: IC50 of receptor/channel inhibition with reference compound): 2.12 µM
IC50 (Cav2.2; Cav2.2, read-out: IC50 of receptor/channel inhibition with reference compound): 8.28 µM

COc1ccc(CCN(C)CCCC(C#N)(c2ccc(OC)c(OC)c2)C(C)C)cc1OC (stereo not drawn) [Verapamil, reference compound]
IC50 (Kv2.1): 78 µM

GSECLEIFKACNPSNDQCCKSSKLVCSRKTRWCKYQIG [SEQ ID NO: 31]
Activity against Nav1.7 channels (Nav1.7; 0.2 or 20 μM, FIG. 2): showed activity on tetrodotoxin-sensitive sodium channels (e.g., Nav1.7)

GSGVPTDVKCRGSPQCIQPCKDAGMRFGKCMNGKCHCTPK [SEQ ID NO: 39]
Kv1.3 inhibition (Kv1.3): showed strong Kv1.3 inhibition

GSQFTDVKCTGSKQCWPVCKQMFGKPNGKCMNGKCRCYS [SEQ ID NO: 19]
Kv1.3 inhibition (Kv1.3): showed strong Kv1.3 inhibition

Picrotoxin [reference compound]
IC50 (GABA; GABA, read-out: IC50 of receptor/channel inhibition with reference compound): 1.72 µM
